Measured values from the nanobody polyreactivity screen of Harvey et al. (2022).

Assay: yeast display, Sf9 membrane polyspecificity reagent, FACS + sequencing; frameworks hold sequencing errors
Outline: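 In a synthetic yeast display library (Saccharomyces cerevisiae BJ5465), nanobody expression was induced with galactose for 36–48 hours. FACS gates were set low and high (top ~1%) using anti-HA fluorescence for expression and streptavidin fluorescence for binding of the Sf9 membrane reagent. Each polyreactivity label is drawn from the gate of origin.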

Sequence	polyreactivity (PSR sort gate)
QVQLVESGGGLVQAGGSLRLRCAASGSTFAYYAMGWYRQAPGKERELVAAITASATNTYYADSVKGRFTISRDHAKNTVYLQMNSLKPEDTAVYYCAADDVDVEHQASWDDYDSWGQGTQVTVSS	low polyreactivity
QVQLVESGGGLVQAGGSLRLRCAASGSTFLKNAKGWYRQAPGKERELVAAISYSTTRSYYADSVKGRFTISRDNAKNTVYLQMNSLKPEDTAVYYCAADGYWWTYTRYDYWGQGTQVTVSS	low polyreactivity
QVQLVESGGGLVQAGGSLRLRCAASGSTFPYNAMGWYRQAPGKERELVAAITSAVGTNYADSVKGRVTISRDNAKNTVYLQMNSLKREDTAVYYCAARYIETPLTVLSLMDYWGQGTQVTVSS	low polyreactivity
QVQLVESGGGLVQAGGSLRLRCAASGSTFSRYTMGWYRQAPGKERELVAAISKSGGSTYYADSVKGRFTISRDNAKNTVYLQMNSLKPEDTAVYYCAALVRAGTSLDFDYWGQGTQVTVSS	high polyreactivity
QVQLVESGGGLVQAGGSLRLRCAASGSTFSSYAMGWYRQAPGKERELVAAISSRGGRTYYADSVKARFTISRDNAKNTVYLQMNRLIPEDTAVYYCAADWGVRDEYYYWGQGTQVSVSS	high polyreactivity
QVQLVESGGGLVQAGGSLRLRCAASGSTFSTNAMGWYSQAPGKERELVASITRSGGSTYYADSVKGRFTISRDNAKNTFYLQMTSLKPEDTAVYYCNADGYYDYDYGFWGQGTQVTVSS	low polyreactivity
QVQLVESGGGLVQAGGSLRLRCAASGSTFVYNGMGWYRQAPGKERELVATISSTGSTNYADSVKGRFTISRDNAKNTVFLQMNSLKPEDTAVYYCATEYITYLAYDYWGQGTQVTVSS	low polyreactivity
QVQLVESGGGLVQAGGSLRLRCAASGSTLSNYAMGWYRQAPGKERELVAAITWSTGSTYYADSVKGRFTISRDNAKNSVYLQMNSLKPEDTAVYYCNAGSQYLLVGLYDYWGQGTQVTVSS	low polyreactivity
QVQLVESGGGLVQAGGSLRLRCAASGTNSVQYAMGGYRQAPGKERELVAAIDRSGGSTSYADSVKGRFTISRDNAKNTVYLQMNSLKQEDTAVYYCNADPFRSTYSYDYWGQGTQVTVSS	low polyreactivity
QVQLVESGGGLVQAGGSLRLRCAASGYIFRYYAMGWYRQAPGKEREFVAAISRNGGSTYYADSVKGRFTISRDKAKNTVYLQMNSLKPEDTAVYNCNVVGHDDKYDYWGQGTQVTVSS	high polyreactivity
QVQLVESGGGLVQAGGSLRLRCAATGSTFVYNAMGWYRPAPGKVRELVARITRSGGSTYYADSVKGRFTISRDNAKNTVYLQMKSLKPEDTAVYYCAKEREGHSVRIGPRYNYWGQGSQVTVSS	low polyreactivity
QVQLVESGGGLVQAGGSLRLRCASSGRTFRYNAMGWYRQAPGKERELVATISSSGGSTSYADSVKGRFTISRDNAKKTVYLQMNSLKPEDTAVYYCNKRRLVAAGNGMDSWGQGTQVTVSS	low polyreactivity
QVQLVESGGGLVQAGGSLRLRCASSGSIFHRNAMGWYRQAPGKERELVATITSNGGSTYYADSVKGRFTISRDNAKNTVFLHMNRLKPEDTAVYFCARKYRSPISALLTGDYWGQGTEVTVSS	low polyreactivity
QVQLVESGGGLVQAGGSLRLRCATSGSIFRIYAMGWYRQAPGKERELVAAIDSGGSTNYADYVKGRFTISRDNAKNTVYFQMNCLKPEDTAVFYCNVEAWWLSYSEYDYWGQGTQVTVSS	high polyreactivity
QVQLVESGGGLVQAGGSLRLRCPASGFIFFWNTMGWYRQAPGKERELVAAISQSGDSTYYADSVKGRFTISRDSAKNTVYLQMNSLKPEDTAVYFWAADKKTITYRYDYWGLGTQVTVSS	low polyreactivity
QVQLVESGGGLVQAGGSLRLRGAASGSTFIFNVRGWYRQAPGKERELVAVISWSGGSTYYADSVKGRFTISRDNAKNTVYLQMNSLKPEDTAVYYCARDQTFGPSPYDWYYYPGYDYWGQGTQVTVSS	low polyreactivity
QVQLVESGGGLVQAGGSLRLRSPASGSTLYRYAMGWYRQAPGKERELVAAIYSSGGTTFYADSVKGRFTISRDNAKKTVYLQMKSLKPEDTAVYYCNRTARKLRTVHSSVVGLDYWGQGTQVTVSS	low polyreactivity
QVQLVESGGGLVQAGGSLRLSAATGSTLAGKTMGWYRQASRKERELVAAINDSGGSTYYADSVKGRFTISRDNAKNSVYLQMNSLKPEDTAVYYCNADGYAYIEDGYDYWGQCTQVTVSS	low polyreactivity
QVQLVESGGGLVQAGGSLRLSCAAAGTYKYYAMGWYRQAPGKERELVAASNRGGSTNYADSVKGRFTISRDNAKNTVYLQMNSLKPEDTAVYYCAAERWYVRGRHYFYWGQGTQVTVSS	high polyreactivity
QVQLVESGGGLVQAGGSLRLSCAACGITFLSNAMGWYRQAPGKERELVAAITTSGGTTYADSVKGRFTISRDNAKNTVYLQMNSLKPEDTAVYYCNAVGYTPRKPSKFDYWGQGTQVTVSS	low polyreactivity
QVQLVESGGGLVQAGGSLRLSCAACGRILWTYAMGLYRQAPGKERELVADISRTGSTNYADSVKGRFTISRDNAKNTVYLQMNSLKPEDTAVYYCAADRWAHTHRLGYWGQGTQVTVSS	low polyreactivity
QVQLVESGGGLVQAGGSLRLSCAACGRTFYQNAMGWYRQAPGKERELVAAISRSGGSTYYADSVKGRFTISLYNAKNTVYLQMNSLKPEDTAVYFCAADPRSYGGGYDYWGQGTQVTVSS	high polyreactivity
QVQLVESGGGLVQAGGSLRLSCAACGSIFLKYVMGWYRQAPGKERELVAAISFRSGSTYYADSVKGRFTISRDNAKNTVYVQMNSLKPEDTAVYYCAASWTPRYLGFDHWGQGSQVTVSS	high polyreactivity
QVQLVESGGGLVQAGGSLRLSCAACGSISVYNAMGWYRQAPGKERELVAAISWSGGRTSYADSVKGRFTISRDNAKNTVYLQMNSLKPEDTAVYYCAADELTVMWDEDYWGQGTQVTVSS	low polyreactivity
QVQLVESGGGLVQAGGSLRLSCAAPGSTFVYYAMGWFRQAPGKEGELVAAISRSGGHTYYADSVKGRFTISRDKAKKTVYLQMNSLKPEETAVYYCAARSYGVQYYYWGQRTQVTVSS	high polyreactivity
QVQLVESGGGLVQAGGSLRLSCAASAFTFRRYVKGWYRQAPGKERELVAAISSGGRTNYADSVKGRFTISRYNAKNTVYLQMNSLKPEDTAVYYCAADRYSSYYVLYDYWGQGTQVSVSS	high polyreactivity
QVQLVESGGGLVQAGGSLRLSCAASAFTFYYYDMGWYRQAPGKERELVAAIDTSDGSTYYADSVKGRFTISRDNAKNTVYLQMNSLKPEDTAVYYCSAEVDWVPFLLVYWGQGTQVTVSS	low polyreactivity
QVQLVESGGGLVQAGGSLRLSCAASAFYTNAMGWYRQAPGKERELVAAITSDGDSTYYADSVKGRFTISRDNAKNTVYLQMNSLKPEDNAVYYCAADAVPTSVVDWGFYGMYWGQGTQVTVSS	low polyreactivity
QVQLVESGGGLVQAGGSLRLSCAASALTFHFNAMGWYRQAPGKERELVASITSSGGSTYYADSVKGRFTISRDNAKNTVSLQMNSLKPEDTAVYYCNAEGSSVLTGYWGYPPYWDTYDYSGQGTQVTVSS	low polyreactivity
QVQLVESGGGLVQAGGSLRLSCAASANIFKPNAMGWYRQAPGKERELVAAISDSGGNTYYADSVKGRFTISRDNAKNTVYLQMNSLKPEDTAVYYCARRYYWYSGRYDYWGQGTQVTVSS	high polyreactivity
